Assay results published in article PMC3433589 (Biochemistry, 2012).

T1: human Glutaminase Interacting Protein (GIP) (human, UniProt O14907 1-124)
T1 sequence (looked up): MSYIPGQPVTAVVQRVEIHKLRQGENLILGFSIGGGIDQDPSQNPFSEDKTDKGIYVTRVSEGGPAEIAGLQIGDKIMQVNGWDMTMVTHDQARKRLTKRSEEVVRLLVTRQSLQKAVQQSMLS

B1: ASSSVDDMA peptide (synthetic) (peptide)
peptide: ASSSVDDMA
B2: GSGTDLDAS peptide (synthetic) (peptide)
peptide: GSGTDLDAS
B3: ESSVDLLDG peptide (synthetic) (peptide)
peptide: ESSVDLLDG
B4: GSSLDVTDN peptide (synthetic) (peptide)
peptide: GSSLDVTDN
B5: phage clone displaying ASSSVDDMA (peptide)
chain: ASSSVDDMA
B6: phage clone displaying GSSLDVTDN (peptide)
chain: GSSLDVTDN
B7: phage clone displaying VSNLDTTND (peptide)
chain: VSNLDTTND
B8: phage clone displaying GSMNLDVQS (peptide)
chain: GSMNLDVQS
B9: phage clone displaying GSGTDLDAS (peptide)
chain: GSGTDLDAS
B10: phage clone displaying DSNLDVSVE (peptide)
chain: DSNLDVSVE
B11: phage clone displaying AISSVDSMG (peptide)
chain: AISSVDSMG
B12: phage clone displaying GTNLDGNGD (peptide)
chain: GTNLDGNGD
B13: phage clone displaying AYESSVDDN (peptide)
chain: AYESSVDDN
B14: phage clone displaying GSSVDLVGD (peptide)
chain: GSSVDLVGD
B15: phage clone displaying GYETSLDSN (peptide)
chain: GYETSLDSN
B16: phage clone displaying DGNLDSYDN (peptide)
chain: DGNLDSYDN
B17: phage clone displaying ESSVDMIGD (peptide)
chain: ESSVDMIGD
B18: phage clone displaying GSSSVDVDG (peptide)
chain: GSSSVDVDG
B19: phage clone displaying GGNLDVNVG (peptide)
chain: GGNLDVNVG
B20: phage clone displaying ESSVDLLDG (peptide)
chain: ESSVDLLDG
B21: phage clone displaying GSSLDVTSE (peptide)
chain: GSSLDVTSE

Molecular target: T1, human Glutaminase Interacting Protein …
Test: NMR titration

Binder	binding result
B1	binds
B2	binds
B3	binds
B4	binds

Molecular target: T1, human Glutaminase Interacting Protein …
Test: phage display selection

Binder	binding result
B5	binds
B6	binds
B7	binds
B8	binds
B9	binds
B10	binds
B11	binds
B12	binds
B13	binds
B14	binds
B15	binds
B16	binds
B17	binds
B18	binds
B19	binds
B20	binds
B21	binds
